We go through four molecules from patent publication US20260258394A1, “PLANT ENZYMES WITH IMPROVED ACTIVITY” (MAX-PLANCK-GESELLSCHAFT ZUR FÖRDERUNG DER WISSENSCHAFTEN …, priority 2023, published 2026).

The Km is the concentration of substrate that gives half-maximal velocity. The term Vmax denotes the rate approached at saturating substrate. By kcat/KM is commonly meant the turnover number divided by the Michaelis constant. As usually defined, the kcat/Km is the turnover number divided by the Michaelis constant.

Positions count from the first letter of the chain named. Numbers in names are those of the source.

For data set [1], the target named is T1, Glycolyl-CoA Carboxylase GCC M5 variant G20R (Methylorubrum extorquens propionyl-CoA carboxylase variant G20R, L100S, Y143H, D407I, I450V, W502R); β-subunit SEQ (Methylorubrum extorquens, UniProt C5AP75, D407I/G20R/I450V/L100S/W502R/Y143H).
T1 construct: overexpressed in E. coli BL21-birA with M. extorquens biotin ligase
T1 sequence (C5AP75 1-510 G20R/L100S/Y143H/D407I/I450V/W502R): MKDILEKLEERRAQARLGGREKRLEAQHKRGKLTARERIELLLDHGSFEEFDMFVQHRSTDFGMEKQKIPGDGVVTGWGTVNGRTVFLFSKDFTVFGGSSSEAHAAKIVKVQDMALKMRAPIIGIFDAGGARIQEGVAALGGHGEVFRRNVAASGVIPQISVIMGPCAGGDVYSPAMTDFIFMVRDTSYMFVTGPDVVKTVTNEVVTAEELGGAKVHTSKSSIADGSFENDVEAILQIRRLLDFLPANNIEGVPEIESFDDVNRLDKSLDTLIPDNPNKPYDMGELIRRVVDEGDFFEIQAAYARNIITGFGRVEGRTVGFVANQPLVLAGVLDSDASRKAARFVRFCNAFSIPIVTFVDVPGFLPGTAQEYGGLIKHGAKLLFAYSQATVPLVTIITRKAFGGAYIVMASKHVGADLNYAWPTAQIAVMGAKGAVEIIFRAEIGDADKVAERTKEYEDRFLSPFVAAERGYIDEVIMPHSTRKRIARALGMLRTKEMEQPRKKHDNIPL
T1 sequence (C5AWU5 1-667 partner): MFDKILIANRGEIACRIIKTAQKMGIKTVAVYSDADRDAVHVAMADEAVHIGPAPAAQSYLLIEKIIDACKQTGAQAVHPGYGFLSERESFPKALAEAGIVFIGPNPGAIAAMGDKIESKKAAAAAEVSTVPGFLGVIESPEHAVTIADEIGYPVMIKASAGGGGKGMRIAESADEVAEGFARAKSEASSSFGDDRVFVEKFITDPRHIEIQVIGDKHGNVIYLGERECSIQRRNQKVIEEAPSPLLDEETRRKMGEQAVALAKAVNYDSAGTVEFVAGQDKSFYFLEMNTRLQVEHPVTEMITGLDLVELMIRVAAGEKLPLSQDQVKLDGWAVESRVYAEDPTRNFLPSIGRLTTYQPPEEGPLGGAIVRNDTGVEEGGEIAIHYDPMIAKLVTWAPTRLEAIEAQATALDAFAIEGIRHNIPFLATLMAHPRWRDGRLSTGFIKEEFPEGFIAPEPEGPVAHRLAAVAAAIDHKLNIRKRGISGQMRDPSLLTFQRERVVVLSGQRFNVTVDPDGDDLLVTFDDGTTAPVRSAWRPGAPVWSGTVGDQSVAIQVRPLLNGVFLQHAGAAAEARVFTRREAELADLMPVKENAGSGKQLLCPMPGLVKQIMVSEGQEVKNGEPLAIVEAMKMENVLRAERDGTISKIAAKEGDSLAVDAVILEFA
The data set can be described thus: Kinetic characterization of GCC M5 G20R (Vmax, kcat, App. KM) using LC-MS assays. The class given is biochemical. The text has this: The carboxylation activity can be measured as catalytic rate of carboxylation of glycolyl-CoA (conversion of glycolyl-CoA into tartronyl-CoA) (Scheffen, loc. cit.). Catalytic rate (kcat) is here defined as the maximum formation rate of tartronyl-CoA out of glycolyl-CoA and HCO3^−. It describes how many mol of the substrate are converted per time and per mol of enzyme. It can only be approximated as it requires 100% substrate saturation of the active sites. Therefore, turnover rates at different initial substrate concentrations can be measured to compute the catalytic rate with the Michaelis-Menten equation.

For data set [2], the system named is Glycolyl-CoA Carboxylase GCC M5 (Methylorubrum extorquens propionyl-CoA carboxylase variant L100S, Y143H, D407I, I450V, W502R; β-subunit SEQ ID NO: 1 …). The note with it: cited from earlier work.
The target of data set [3] is T2, GCC M5_G20R (M. extorquens) β-subunit G20R, L100S, Y143H, D407I, I450V, W502R mutations.
T2 chain: T1 sequence (C5AP75 1-510 G20R/L100S/Y143H/D407I/I450V/W502R)

Substrate in data set [4]: CC(C)(COP(=O)(O)OP(=O)(O)OC[C@H]1O[C@@H](n2cnc3c(N)ncnc32)[C@H](O)[C@@H]1OP(=O)(O)O)[C@@H](O)C(=O)NCCC(=O)NCCSC(=O)CO
In words: Kinetic characterization of GCC M5 G20R (Vmax, kcat, App. KM) using LC-MS assays. The class given is biochemical, Methylorubrum extorquens. The note with it: other: G20R; means±s.d., n=18, nonlinear regression.

Substrate in data set [5]: CC(=O)SCCNC(=O)CCNC(=O)[C@H](O)C(C)(C)COP(=O)(O)OP(=O)(O)OC[C@H]1O[C@@H](n2cnc3c(N)ncnc32)[C@H](O)[C@@H]1OP(=O)(O)O
The data set is described as above. The class given is biochemical, Methylorubrum extorquens. The following applies: other: G20R; means±s.d., n=18, nonlinear regression.

Substrate in data set [6]: CC(C)(COP(=O)(O)OP(=O)(O)OC[C@H]1O[C@@H](n2cnc3c(N)ncnc32)[C@H](O)[C@@H]1OP(=O)(O)O)[C@@H](O)C(=O)NCCC(=O)NCCSC(=O)CO
In words: Kinetic characterization of GCC M5 S100N (Vmax, kcat, App. KM) using LC-MS assays. The note with it: other: S100N; means±s.d., n=18, nonlinear regression. It is filed as biochemical, Methylorubrum extorquens.

Substrate in data set [7]: CC(=O)SCCNC(=O)CCNC(=O)[C@H](O)C(C)(C)COP(=O)(O)OP(=O)(O)OC[C@H]1O[C@@H](n2cnc3c(N)ncnc32)[C@H](O)[C@@H]1OP(=O)(O)O
The description is as above. It is filed as biochemical, Methylorubrum extorquens. The following applies: other: S100N; means±s.d., n=18, nonlinear regression.

[8] abbreviates: means±s.d., reference Scheffen loc. cit.

For the molecule `CC(C)(COP(=O)(O)OP(=O)(O)OC[C@H]1O[C@@H](n2cnc3c(N)ncnc32)[C@H](O)[C@@H]1OP(=O)(O)O)[C@@H](O)C(=O)NCCC(=O)NCCSC(=O)CO` [Glycolyl-CoA, glycolyl-CoA], in data set [1] (G20R versus GCC M5), the “Vmax, fold higher than GCC M5” value was 1.8 -fold. Besides, the “apparent KM value for glycolyl-CoA (change versus GCC M5)” value in data set [1] (G20R versus GCC M5, result in words) is “slightly increased”. Besides, the kcat in data set [1] (G20R, unit not given) was 9.8±0.2; in data set [2] (setting [8]) it was 5.6 ± 0.3 s⁻¹. For the same molecule, in data set [2] (Scheffen, Nat. Catal. 4, 105-115, 2021), the “catalytic rate of carboxylation of glycolyl-CoA” value is 5.6 ± 0.3 s⁻¹. Further, in data set [2] (means±s.d., reference Scheffen loc. cit., read-out: App. KM), the Michaelis-Menten constant (Km) was 150 ± 30 µM. Further, the Vmax in data set [2] (setting [8]) is 2590 ± 130 nmol/min/mg. Also, the kcat/KM in data set [2] (reference Scheffen loc. cit.) was 36300 s⁻¹ M⁻¹.

B1: PCC WT (M. extorquens) α-subunit (protein)
chain: T1 sequence (C5AWU5 1-667 partner)
B1: in data set [3], the Specific activity (nmol min^-1 mg^-1) (nmol min^-1 mg^-1) is 2600; the Vmax [nmol min^-1 mg^-1], glycolyl-CoA (nmol min^-1 mg^-1) was 4520; the kcat [s^-1], glycolyl-CoA turned out to be 9.8 s⁻¹.

B2: Glycolyl-CoA Carboxylase GCC M5 variant G20R (Methylorubrum extorquens propionyl-CoA carboxylase variant G20R, L100S, Y143H, D407I, I450V, W502R; β-subunit SEQ … (protein)
chain: T1 sequence (C5AP75 1-510 G20R/L100S/Y143H/D407I/I450V/W502R)
notes: overexpressed in E. coli BL21-birA with M. extorquens biotin ligase
Turning to B2, in data set [4], the Michaelis-Menten constant (Km) is 0.27 ± 0.02 mM, the Vmax was 4.52 µmol/min/mg, the kcat worked out at 9.8 ± 0.2 s⁻¹ and the catalytic efficiency (kcat/Km) came to 36400 M⁻¹ s⁻¹. Also, in data set [5], the Michaelis constant (Km) came out at 0.38 ± 0.10 mM, the Vmax was 2.25 µmol/min/mg, the kcat was found to be 4.9 ± 0.4 s⁻¹ and the catalytic efficiency (kcat/Km) worked out at 13000 M⁻¹ s⁻¹.

B3: Glycolyl-CoA Carboxylase GCC M5 variant S100N (= L100N; Methylorubrum extorquens propionyl-CoA carboxylase variant L100N, Y143H, D407I, I450V, W502R; β-subunit … (protein)
chain: T1 sequence (C5AP75 1-510 G20R/L100S/Y143H/D407I/I450V/W502R) with R20G, S100N
notes: as for B2
B3: in data set [6], the Km came out at 0.32 ± 0.05 mM, the Vmax was found to be 0.79 µmol/min/mg, the kcat was 1.7 ± 0.1 s⁻¹ and the kcat/Km amounted to 5360 M⁻¹ s⁻¹. For the same molecule, in data set [7], the Michaelis constant (Km) came out at 0.63 ± 0.10 mM, the maximum rate (Vmax) came to 0.174 µmol/min/mg, the kcat is 0.38 ± 0.03 s⁻¹ and the kcat/Km stood at 596 M⁻¹ s⁻¹.
